This assay has as its target Plasmodium falciparum plasmoredoxin (Plasmodium falciparum). Description: SEC; PfPlrx without TCEP, at least partially oxidized.

In turn, “Plasmodium falciparum plasmoredoxin (natural protein)” had a stoichiometry N of 2.

(Values after article PMC9006252.)
